Residue numbers refer to the chain shown, from its start. *1 amine or outer side, *2 acyl side, *3 side chain or, on linkers, in order; H or OH if unused. Where no end group is shown, it is not given here. Side-chain parts run from the residue outwards. [ ]: non-standard residue; d: D form. The star is where a group is joined. αMePhe(2-F) = C[C@](N)(Cc1ccccc1F)C(=O)O; γGlu = O=C(O)[C@H](CCC(=O)[*:2])N[*:1]; C14 diacid = O=C(O)CCCCCCCCCCCCC(=O)*; αMeY = C[C@](N)(Cc1ccc(O)cc1)C(=O)O; αMeL = CC(C)C[C@](C)(N)C(=O)O; Nle = CCCC[C@H](N)C(=O)O; Orn = NCCC[C@H](N)C(=O)O; AEEA = NCCOCCOCC(=O)O; Aib = CC(C)(N)C(=O)O
T1: human GIP receptor (human, UniProt P48546 22-466)
T1 sequence (looked up): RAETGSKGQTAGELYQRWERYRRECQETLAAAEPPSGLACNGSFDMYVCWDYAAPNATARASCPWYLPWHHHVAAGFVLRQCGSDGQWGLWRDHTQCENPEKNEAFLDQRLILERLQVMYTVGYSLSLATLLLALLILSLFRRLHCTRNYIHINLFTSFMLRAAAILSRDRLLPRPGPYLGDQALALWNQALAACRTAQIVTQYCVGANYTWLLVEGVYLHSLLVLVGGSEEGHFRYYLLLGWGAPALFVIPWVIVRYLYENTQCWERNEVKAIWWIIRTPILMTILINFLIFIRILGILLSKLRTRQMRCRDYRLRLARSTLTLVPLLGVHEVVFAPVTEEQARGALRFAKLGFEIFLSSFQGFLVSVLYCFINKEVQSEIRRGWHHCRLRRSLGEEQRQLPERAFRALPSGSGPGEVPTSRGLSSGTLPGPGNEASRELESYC

T2: human GIP receptor (human, UniProt P48546 22-466)
T2 construct: whole, on cells; also called hGIPR; human glucose-dependent insulinotropic polypeptide receptor
T2 sequence (looked up): T1 sequence (looked up)

B1: Y-Aib-EGT-αMeF(2F)-TSD-4Pal-SI-αMeL-LD-Orn-K((2-[2-(2-Amino-ethoxy)-ethoxy]-acetyl)-(γ-Glu)-(10-(4-carboxyphenoxy)decanoyl))AQ-Aib-EFI-(D-Glu)-αMeY-LIEGGK((2-[2 … (peptide)
peptide: YXEGTXTSDXSIXLDXKAQXEFIXXLIEGGKSSGAPPPS
modifications: Aib2, αMeF(2F)6, 4Pal10, αMeL13, Orn16, K17(Z1), Aib20, D-Glu24, αMeY25, K31(Z1), C-term NH2; Z1=AEEA-(γ-Glu)-(10-(4-carboxyphenoxy)decanoyl)
B2: Y-Aib-EGT-αMeF(2F)-TSD-4Pal-SI-αMeL-LD-Orn-K((2-[2-(2-Amino-ethoxy)-ethoxy]-acetyl)-(γ-Glu)-CO-(CH2)14-CH3)AQ-Aib-EFI-(D-Glu)-αMeY-LIEGGK((2-[2-(2-Amino-ethoxy) … (peptide)
peptide: B1 peptide
modifications: Aib2, αMeF(2F)6, 4Pal10, αMeL13, Orn16, K17(Z1), Aib20, D-Glu24, αMeY25, K31(Z1), C-term NH2; Z1=AEEA-(γ-Glu)-CO-(CH2)14-CH3
B3: Y-Aib-EGT-αMeF(2F)-TSD-4Pal-SI-αMeL-LD-Orn-K((2-[2-(2-Amino-ethoxy)-ethoxy]-acetyl)-(γ-Glu)-CO-(CH2)10-CH3)AQ-Aib-EFI-(D-Glu)-αMeY-LIEGGK((2-[2-(2-Amino-ethoxy) … (peptide)
peptide: B1 peptide
modifications: Aib2, αMeF(2F)6, 4Pal10, αMeL13, Orn16, K17(Z1), Aib20, D-Glu24, αMeY25, K31(Z1), C-term NH2; Z1=AEEA-(γ-Glu)-CO-(CH2)10-CH3
B4: Y-Aib-EGT-αMeF(2F)-TSDK((2-[2-(2-Amino-ethoxy)-ethoxy]-acetyl)2-(γ-Glu)-CO-(CH2)14-CH3)SI-αMeL-LD-Orn-K((2-[2-(2-Amino-ethoxy)-ethoxy]-acetyl)2-(γ-Glu)-CO-(CH2) … (peptide)
peptide: B1 peptide with X10K, K31P
modifications: Aib2, αMeF(2F)6, K10(Z1), αMeL13, Orn16, K17(Z1), Aib20, D-Glu24, αMeY25, C-term NH2; Z1=AEEA2-(γ-Glu)-CO-(CH2)14-CH3
B5: Y-Aib-EGT-αMeF(2F)-TSDY-Aib-I-αMeL-LD-Orn-QAQ-Aib-Orn-FIK((2-[2-(2-Amino-ethoxy)-ethoxy]-acetyl)2-(γ-Glu)--C10_4CP)-αMeY-LIK((2-[2-(2-Amino-ethoxy)-ethoxy]-acet … (peptide)
peptide: YXEGTXTSDYXIXLDXQAQXXFIKXLIKGGPSSGAPPPS
modifications: Aib2, αMeF(2F)6, Aib11, αMeL13, Orn16, Aib20, Orn21, K24(Z1), αMeY25, K28(Z1), C-term NH2; Z1=AEEA2-(γ-Glu)-C10_4CP (so in the source)
B6: Y-Aib-EGT-αMeF(2F)-TSD-4Pal-Aib-I-αMeL-LD-Orn-QAQ-Aib-Orn-FIK((2-[2-(2-Amino-ethoxy)-ethoxy]-acetyl)-(γ-Glu)-(2-[2-(2-Amino-ethoxy)-ethoxy]-acetyl)-(γ-Glu)-CO-( … (peptide)
peptide: B5 peptide with Y10X
modifications: Aib2, αMeF(2F)6, 4Pal10, Aib11, αMeL13, Orn16, Aib20, Orn21, K24(Z1), αMeY25, K28(Z1), C-term NH2; Z1=AEEA-(γ-Glu)-AEEA-(γ-Glu)-CO-(CH2)12-CO2H
B7: Y-Aib-EGT-αMeF(2F)-TSD-4Pal-Aib-I-αMeL-LD-Orn-QAQ-Aib-Orn-FIK((2-[2-(2-Amino-ethoxy)-ethoxy]-acetyl)-(γ-Glu)-(2-[2-(2-Amino-ethoxy)-ethoxy]-acetyl)-(γ-Glu)-(10- … (peptide)
peptide: B5 peptide with Y10X
modifications: Aib2, αMeF(2F)6, 4Pal10, Aib11, αMeL13, Orn16, Aib20, Orn21, K24(Z1), αMeY25, K28(Z1), C-term NH2; Z1=AEEA-(γ-Glu)-AEEA-(γ-Glu)-(10-(4-carboxyphenoxy)decanoyl)
B8: Y-Aib-EGT-αMeF(2F)-TSD-hY-SI-αMeL-LD-Orn-QAQ-Aib-Orn-FIK((2-[2-(2-Amino-ethoxy)-ethoxy]-acetyl)2-(γ-Glu)-CO-(CH2)12-CO2H)-αMeY-LIK((2-[2-(2-Amino-ethoxy)-ethoxy … (peptide)
peptide: B5 peptide with Y10X, X11S
modifications: Aib2, αMeF(2F)6, hY10 (so in the source), αMeL13, Orn16, Aib20, Orn21, K24(Z1), αMeY25, K28(Z1), C-term NH2; Z1=AEEA2-(γ-Glu)-CO-(CH2)12-CO2H
B9: Y-Aib-EGT-αMeF(2F)-TSD-4Pal-Aib-I-αMeL-LD-Orn-QAQ-Aib-4Pal-FIK((2-[2-(2-Amino-ethoxy)-ethoxy]-acetyl)2-(γ-Glu)-(10-(4-carboxyphenoxy)decanoyl))-αMeY-LIK((2-[2-( … (peptide)
peptide: B5 peptide with Y10X
modifications: Aib2, αMeF(2F)6, 4Pal10, Aib11, αMeL13, Orn16, Aib20, 4Pal21, K24(Z1), αMeY25, K28(Z1), C-term NH2; Z1=AEEA2-(γ-Glu)-(10-(4-carboxyphenoxy)decanoyl)
B10: Y-Aib-EGT-αMeF(2F)-TSD-4Pal-Aib-I-αMeL-LD-Orn-QAQ-Aib-Orn-FIK((2-[2-(2-Amino-ethoxy)-ethoxy]-acetyl)-(γ-Glu)3-CO-(CH2)12-CO2H)-αMeY-LIK((2-[2-(2-Amino-ethoxy)-e … (peptide)
peptide: B5 peptide with Y10X
modifications: Aib2, αMeF(2F)6, 4Pal10, Aib11, αMeL13, Orn16, Aib20, Orn21, K24(Z1), αMeY25, K28(Z1), C-term NH2; Z1=AEEA-(γ-Glu)3-CO-(CH2)12-CO2H
B11: Y-Aib-EGT-αMeF(2F)-TSD-4Pal-SI-αMeL-LD-Orn-K((2-[2-(2-Amino-ethoxy)-ethoxy]-acetyl)2-(γ-Glu)-CO-(CH2)14-CH3)AQ-Aib-EFIK((2-[2-(2-Amino-ethoxy)-ethoxy]-acetyl)2- … (peptide)
peptide: B1 peptide with X24K, K31P
modifications: Aib2, αMeF(2F)6, 4Pal10, αMeL13, Orn16, K17(Z1), Aib20, K24(Z1), αMeY25, C-term NH2; Z1=AEEA2-(γ-Glu)-CO-(CH2)14-CH3
B12: Y-Aib-EGT-αMeF(2F)-TSD-4Pal-Aib-I-αMeL-LD-Orn-QAQ-Aib-Orn-FIK((2-[2-(2-Amino-ethoxy)-ethoxy]-acetyl)-(γ-Glu)3-(10-(4-carboxyphenoxy)decanoyl))-αMeY-LIK((2-[2-(2 … (peptide)
peptide: B5 peptide with Y10X
modifications: Aib2, αMeF(2F)6, 4Pal10, Aib11, αMeL13, Orn16, Aib20, Orn21, K24(Z1), αMeY25, K28(Z1), C-term NH2; Z1=AEEA-(γ-Glu)3-(10-(4-carboxyphenoxy)decanoyl)
B13: Y-Aib-EGT-αMeF(2F)-TSD-4Pal-SI-αMeL-LD-Orn-K((2-[2-(2-Amino-ethoxy)-ethoxy]-acetyl)2-(γ-Glu)-CO-(CH2)14-CH3)AQ-Aib-EFI-(D-Glu)-αMeY-LIEGGPSSGAPPPSK((2-[2-(2-Ami … (peptide)
peptide: YXEGTXTSDXSIXLDXKAQXEFIXXLIEGGPSSGAPPPSK
modifications: Aib2, αMeF(2F)6, 4Pal10, αMeL13, Orn16, K17(Z1), Aib20, D-Glu24, αMeY25, K40(Z1), C-term NH2; Z1=AEEA2-(γ-Glu)-CO-(CH2)14-CH3
B14: Example 224 (peptide)
peptide: B1 peptide with E28K, K31P
modifications: Y-Aib-EGT-αMeF(2F)-TSD-4Pal-SI-αMeL-LD-Orn-K((2-[2-(2-Amino-ethoxy)-ethoxy]-acetyl)3-(γ-Glu)-CO-(CH2)12-CO2H)AQ-Aib-EFI-(D-Glu)-αMeY-LIK((2-[2-(2-Amino-ethoxy)-ethoxy]-acetyl)3-(γ-Glu)-CO-(CH2)12-CO2H)GGPSSGAPPPS-NH2
B15: Example 256 (peptide)
peptide: B1 peptide with E28K, K31P
modifications: Y-Aib-EGT-αMeF(2F)-TSD-2Nal-SI-αMeL-LD-Orn-K((2-[2-(2-Amino-ethoxy)-ethoxy]-acetyl)2-CO-(CH2)12-CO2H)AQ-Aib-EFI-(D-Glu)-αMeY-LIK((2-[2-(2-Amino-ethoxy)-ethoxy]-acetyl)2-CO-(CH2)12-CO2H)GGPSSGAPPPS-NH2 …
B16: Example 250 (peptide)
peptide: B1 peptide with E28K, K31P
modifications: Y-Aib-EGT-αMeF(2F)-TSD-2Nal-SI-αMeL-LD-Orn-K((2-[2-(2-Amino-ethoxy)-ethoxy]-acetyl)2-(γ-Glu)-CO-(CH2)12-CO2H)AQ-Aib-EFI-(D-Glu)-αMeY-LIK((2-[2-(2-Amino-ethoxy)-ethoxy]-acetyl)2-(γ-Glu)-CO-(CH2)12-CO2H)GGPSSGAPPPS-NH2

target: T3, human GLP-1 receptor (human, UniProt P43220 24-463); experiment: SPA competition vs [125I]-GLP-1, hGLP-1R membranes
T3 construct: whole, on cells; also called hGLP-1R; human glucagon-like peptide-1 receptor
Summary of the method: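 Kᵢ values are geometric means (SEM) over replicates run on separate days, derived from IC₅₀ of four-parameter curve fits. Buffer: HEPES 25 mM pH 7.4 with CaCl₂ 2.5 mM, MgCl₂ 1 mM, bacitracin 0.1%, TWEEN-20 0.003%, EDTA-free protease inhibitors.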

Binder	Ki [nM]
B1	0.638
B2	0.691
B3	0.286
B4	0.412
Y[Aib]EGT[αMePhe(2-F)]TSD[Nle]SI[αMeL]LD[Orn]QAQ[Aib][Orn]FIK([AEEA-AEEA-γGlu-C14 diacid])[αMeY]LIK([AEEA-AEEA-γGlu-C14 diacid])GGPSSGAPPPS-NH2	0.27
B5	0.233
B6	0.268
B7	0.3
B8	0.182
B9	0.25
B10	0.299
B11	0.301
B12	0.217
B13	0.483

target: human glucagon receptor (human, UniProt P47871 26-477); experiment: cell-based or functional assay

Binder	cAMP EC50 (1.0% HSA) [nM]
B14	> 9950
B15	> 9950
B16	> 9950

target: human GLP-1 receptor (human, UniProt P43220 24-463); experiment: cell-based or functional assay

Binder	cAMP EC50 (1.0% HSA) [nM]
B14	71
B15	12.6
B16	63

target: T1, human GIP receptor; experiment: cell-based or functional assay

Binder	cAMP EC50 (1.0% HSA) [nM]	cAMP Emax (1.0% HSA) [%]
B14	2.92	–
B15	1.5	75.3
B16	38.8	–

target: T4, human glucagon receptor (human, UniProt P47871 26-477); experiment: SPA competition vs [125I]-Gcg, hGcgR membranes
T4 construct: whole, on cells; also called hGCGR; hGcgR
T4 sequence (P47871 26-477): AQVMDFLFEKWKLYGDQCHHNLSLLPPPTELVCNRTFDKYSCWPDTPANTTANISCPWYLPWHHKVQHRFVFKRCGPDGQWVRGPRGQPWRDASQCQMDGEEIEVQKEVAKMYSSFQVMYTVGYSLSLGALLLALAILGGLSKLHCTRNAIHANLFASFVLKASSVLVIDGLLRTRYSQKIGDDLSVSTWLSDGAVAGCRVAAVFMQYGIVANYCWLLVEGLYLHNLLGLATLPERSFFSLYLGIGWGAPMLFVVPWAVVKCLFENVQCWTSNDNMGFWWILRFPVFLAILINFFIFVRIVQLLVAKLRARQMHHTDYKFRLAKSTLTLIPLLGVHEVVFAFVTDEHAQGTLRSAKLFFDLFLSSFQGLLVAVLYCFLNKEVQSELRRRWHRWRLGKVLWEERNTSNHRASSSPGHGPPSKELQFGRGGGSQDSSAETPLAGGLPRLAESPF

Binder	Ki [nM]
B1	213
B2	0.987
B3	17.6
B4	0.923
Y[Aib]EGT[αMePhe(2-F)]TSD[Nle]SI[αMeL]LD[Orn]QAQ[Aib][Orn]FIK([AEEA-AEEA-γGlu-C14 diacid])[αMeY]LIK([AEEA-AEEA-γGlu-C14 diacid])GGPSSGAPPPS-NH2	37.8
B5	28.6
B6	305
B7	121
B8	94.4
B9	70.1
B10	115
B11	0.596
B12	73.3
B13	0.283

target: T2, human GIP receptor; experiment: SPA competition vs [125I]-GIP, hGIPR membranes

Binder	Ki [nM]
B1	0.0575
B2	0.0575
B3	0.036
B4	0.0505
Y[Aib]EGT[αMePhe(2-F)]TSD[Nle]SI[αMeL]LD[Orn]QAQ[Aib][Orn]FIK([AEEA-AEEA-γGlu-C14 diacid])[αMeY]LIK([AEEA-AEEA-γGlu-C14 diacid])GGPSSGAPPPS-NH2	0.0288
B5	0.0264
B6	0.0296
B7	0.0548
B8	0.0301
B9	0.0345
B10	0.046
B11	0.0217
B12	0.0714
B13	0.0293

Reference: patent publication US20230265151A1, “GIP/GLP1 CO-AGONIST COMPOUNDS” (priority 2020, published 2023)
